Experiment: label from the status in PepcDB records

Row | Sequence | protein production
1 | MKQIRMLAQYYVDLMMKLGLVRFSMLLALALVVLAIVVQMAVTMVLHGQVESIDVIRSIFFGLLITPWAVYFLSVVVEQLEESRQRLSRLVDKLEEMRERDLKLNVQLKDNIAQLNQEIGEREKAEAERETTLEQLKIEMKEREETQIQLEQQSSFLRSFLDASPDLVFYRNEDKEFSGCNRAMELLTGKSEKQLIHLKPQDVYSEEAAEKVLETDEKVFRHNVSLTYEQWLDYPDGRKACFEIRKVPYYDRVGKRRGLMGFGRDITERKRYQDALERASRDKTTFISTISHELRTPLNGIVGLSRILLDTELTSEQEKYLKTIHVSAVTLGNIFNDIIDMDKMERRKVQLDNQPVDFTSFLADLENLSGLQAQQKGLRFVLEPSLPLPHKVITDGTRLRQILWNLISNAVKFTPQGGGVNVRVRYDEGDILHFEVEDSGIGIPEAEQDKIFAMYYQVKDSHGGKPATGTGIGLAVSRRLARNMGGDISVTSQPGKGATFTLTVHAPAIAEEVEDTLAEDDMPLPALNVLLVEDIELNVIVARSVLEKLGNSVDVAMTGKAALEMFEPGEYDLVLLDIQLPDMTGLDISRELKQRFAADELPPLVALTANVLKNKKEYLDAGMDDVLSKPLSVPALTAMIKKFWDAPDEEAQEAPAADLHKADAVLDTDMLEQYIELVGPKLINDGLAVFEKMMPGYMSVLESNLTARDQKGIVEEGHKIKGAAGSIGLRHIQQLGQQIQTPDLPAWSDNVAEWVEEMKSEWQNDVAVLKAWVAKASKK | failed
2 | MKQKNAYNRLTNHYDDVLTGRKWWSWLYMHCLWKTDDNIIAGSVLDMIPGNFEGRILDVPVGTAIFTYDKYRRMPQAEIVGLDYSQEMLDIAAMRFSAEQITNVSLRQGDVGSLPFPDAAFDLVLSMNGFHVFPDKDRAFAETFRVLRGGGLFCGCFYVKGERKPADWFVRKFLDKKGLFRPPHYTREEAIEKLRSLYGDNVEIQDARSLLVFKCTKPRLEHHHHHH | not failed
3 | MKQRVITAVIALILFIPIVLAGGLWMDWLTVLFAAVGISEIFLMKKQILVSFDFLLALLATLTWTVPDSFFKVFPSNITKLGVFYGIIMLFLTWTVLSKNKTTFDDVGVYILAALYIGIGFHYMAAIRAYPQNGLALLGYVFVVVWSTDIGAYMIGRKIGKHKLWPVISPNKTWEGSIGAVICALICSAIYLAILSSFNITFGVSELSMVVLAFFLSIVGQMGDLVESAYKRFYGVKDSGKILPGHGGILDRFDSMLFVLPVVAAILGIVH | failed
4 | MKQVPDVNKIKFDPETKRIVRKDVPLMMNSFDKKAVEEAIRISERHGWETCVATMGPPQAVEVINEALRMGIERGYLITDPSLANSDTLITSRVLAAFALRYGPDLVLMGKYSLDGETSQVPAEVSALMGWPYVPSVSKIMISDHLELEQELENGIYTCSAPLPCVLSLSEKINRARAIKPDTPQMYDRIVQIDTKWLGLDLDGGRDSPTAVIGTEQVNSNRSPVFIDPGADMYRQIMEIIRVSR | failed
5 | MKQVVLNLKDGDLTVEEVPIPTIKGSGVLVRNHYSVISAGTESGVVDLADKSLIGKARARPDLAMKVINKAKQDGPISAFQQAMGRLEKREPLGYSSAGTVISVSEDIKDIKPGDRVACAGAGYANHADVVFVPRNLCAKVPENVDFKNACFTTVGSIAMQGVRNADVKIGENIVVIGLGLIGLITLQILKASGCRVFGVDLDESKVNLARELGADLSYSRNSPNLEERIKQFSRGIGADSTIITAATRSNDPVDFAGKITRERGKVVIVGLVGMDIPREEYYNKELEMRISRSYGPGRYDRNYEEYGQDYPAPYVRWTENRNMQAFLDLISMKKISMEPIITHEYEIEQAPEAYNIIKERKPYLGLVLKYDTDKRIEDKVILKSPGPVSAISESFSPVLGVIGAGIFATSILLPNLSKIKGVKLKGLSAASGLSCESVAKKYGFEYCTSDYHKILSDPEINCVSIVTRNSLHASLVIEALKNKKNVLVEKPLALNEEELNAIIEAKKENGGFIMVGFNRRYSELGVKLKDFFKNRSQSMVAYYRVNAESIPKDHWVYDESEGGSRIITECCHFIDFMQFIIGSSPVEVYARKIESQVKTPEDNENVSITIAFEDGSIGTLIYTTHGDSSVSKEHAEFFADGMVGAITDFKQLKLVKDGKCTQINKRLITEKGHKNELENFFKMVKQGPSKYSFEENVLTTVSTLKAAEHVMSGGPVKLI | failed
6 | MKRATLPRGRVAGLTAGSLAAVGLALALTLGGVSVVPSGFDGIEDLPLPGGADLGDHPYTVTAELQDVLSLVPHSAVRVNDVAVGRITGIELGEDDWSARVTMEINGEVRLPADATARLEQSSLLGEKYVQLVAPAKETGTGRLTDGSVIPLARTSRNTEVEEVFGALSLLLNGGGVNQLKTITRELNAALGGREPEVRSMLKRVNTLVGDLDDHRGDITDALDAVNRLSSTLATRKDDVGTVLTDLSPGLKTLERQRGSLLTMLRSLDTLSGVAVSTINASKDDMIADLKAVAPTLRALADAGTDLPDSLQVLLTYPFTDEVLRGVKGDYLNTYLSMVAVPGTEVIPPLVDGDTPGPTASATAQDGPDPAAKNPAAKNPISRKRSSGQRGSASPLPLPSVSGAGPASGGEHGLEHHHHHH | not failed
7 | MKRCRRRTQAGIRINLCVQGREGLSSPTPIGPIVTSTQPDSRASSLTDDALQWTRLEVAFTAGIVGCLLFATWQLGDLLARDWLAGWVGESELREDLVYYGVAFTAALAALGGTTRSLAHAGRFRRTVGRSLLWYGALLLISASGMGAIEYLPEVAAGLFGAGVLIAAVYVLQQRYFTRERIRRRRLRNDNCPQCGSDLRPEAHHCSQCGRRMGEDCPECGGYLGRSDRYCADCGRERAEGAP | failed
8 | MKREGNMTLLVRNFIVSIALAISDFFSFVISLYLAIGVLSITISDYETVISVNQLEGWKALHWLLGLCCIAWYSMRLRHYFYRKTFWFELKEILRTLVIFAIIEIAVMAFASWSFSRYLWVLTWFFVLLLVPLARMVTKRVLDVFGLWHRDTWIIGSGANAQEAYKAINSERNLGLVIVGFIAVTGERSENKDINGVPVLAHDPDWLSSMDKKTQFIVAVESHQSEVRNAWLRNFMIKGYRYISVIPTLRGMPLDSTDMSFIFSHEVMIFRVQQNLAKWSSRILKRAFDIVGSLAIIIILSPALIYISRKVKRDGGPSIYGHERIGKGGKSFKCLKFRSMVINSKEVLEKLLDSDSEAKKEWDATFKLKNDPRITKIGAFLRRTSLDELPQLFNVLKGEMSLVGPRPIITAELIRYNDEVDYYLLSKPGMTGLWQVSGRSDVDYETRVYLDAWYVKNWSMWNDIAILFKTISVVLKKDGAY | failed
9 | MKRENIKTILLTVLVVISLVFTWGIWTFQPNFSEGSSSTESTVRVKHKIEKTTQKLSETVRPRDMFIHDDGAHYKVDDNALYEEIWSDLPHWDVKGIKDISDQYDKAGFKSWFYGIGGSEAKLDLQFSDTIPIDIFQTLFKWSNQSFEYSSFDHILIPFNETKANKKIYLVSYSKQLILEVTVESANYRNIMNDLKNRQSNMPAFSLFSIGSKKEFLLPNKPLTMDKKEFVTESIKTNTFKQALFSDPSIVREDSNYNNRNVLTDGISRLDVNLSQRQVQFQQRNLVQSTSYQTGELIKKSQKYLEDTGSWTDHYQFFNINDSQQLSFYIFMDQIPVINSTAKPFGATSAITVQWANDDILSYKRPNYSLGTNPIKTSETELMGGSEVKMLLSKQTAYDTDKIDQIFLAYQLVSTSTNDDPLVELEPVWAMKVNGKIVPITKDLLRKEGANSGVE | failed
10 | MKRFILLSFVVLALGFYELSGGPDFDPEVARASIIDARQERELARKAALPGPVYVAAAPSAEPEVEDSVTRANLNLVSFASVVAEPEISTVTAPVAVARADTPETAPEITVKRLAAAQDEPLSLAALSPAQEPSRNVFAGSSIVASSSDINGEKNLRSVKGTRVNMRSGPGTQYDVVAQLTQSEEVEVLTDTGNGWVELRPLEGGPTGWVAEFLLTGG | failed
11 | MKRFINRRQELDFLEKQYREQNSSLVIIYGRRRIGKTALIKKFIEDKPAIYFLASEEAESQNIEYYKKAVGNFLKNPLIERLSGVGWDDIFDVIINAKINKKTVIVFDEFQNLCKTNPAFASIVQRIWDEKLKNHNFMLILSGSLVGMMQEHALSYSSPLYGRRTGQIKLKQFSFKEAKEFFPEASDDQFIWIYSIVGGVPKYLEMFKFEGDIYKAIEENILSRQSFLYEEPLFLLEKEVHEVGSYFSIIKSIALGNHKLSQIAQSLSTAQTKLTKYLNTLIDLDIVRREVPVTEEYPEKSKRGLYFINDNFIDFWFKFVYPYREQLELDNTEYVIENIKSKIVTNHISFIYEEVCRQILMDLIKTKEIDIQLDRIGKWWDSKSEIDIVGISKNTGHVVFGECKYSQRVVDIDVFFNLKKKAENIKVFPEQKELYILFSRTGFSERLLEFAKETENLILIKFP | failed
12 | MKRFPFRPRLLVTVSLVALLLPGCASKPNNLKPSMPEPRLGVASENPGKPKKGKQASSGSQYDTLWERMFSLYALPQVEHRSVEREVSWFINHPDYLKRAQKRAEPFLYTIVRQLEKQKMPGELALLPIVESAFQPHAVSPARAAGIWQFIPETGRRYGLKRSRSYDGRRDVYASTRAAIKYLKKLHNDFNGDWLLAIAAYNCGEGAVAKAIQRNEARNLPTDFWSLDLPDETKAYVPRLLAVSKVFANADKYAIDLHYIPNEAIFKPVKVSSQLDLALAADAADMSLERMLELNPGFKHPHADIEGSYRLFVPADKSRKFKKELARLAMSGQFDSHPPADEGDGSTGFGHRGSLETATEDDAAPGRERSVRKPVVSGYGAEYAVPSRSAERGGPAKDSSRSERWQSVETPSRGGSAVVAHLRDGSRLRDVWGREHGQEDKPLKGNRRPDERLGLSSKANPNRKEGGRKVAGGSALSREEALREERGDRGKEKHAISIPFDERHGGGIKASQSIRHTVKPGETLFAISQRFGVSVADLRKWNGVKENKLEAGRNIRVSAGKD | failed
13 | MKRGLRKERNKEDEAGKIVNEGKAHLFYKVIILMVFYISYGIYLYWRFAYTIPRGYGDIALIAGYVLFIAETIGFLESSMFYLTLWDTNTPSTPEVQDKEFPHVDIFIASYNEPRNLLYKTLIGCKNMDYPDKSKVHIYICDDGNRKDIKELCESLKVGYITREDNTHAKAGNLNNALKQTSSPYVVTFDADMIPMHDFLLKTIPFFMVEDKIGFVQVPQNFYNADPFQYNLFNESRVPNEQNLFSRLIQAGKNRFNAIIYSGSNTVLSREALNEINGLVVGTITEDFATGMKIQSKGYKCIYLNETHASGLSPESLEDLYSQRIRWGRGVIQTFKAFNPLFMRGLNIYQKLMYFSAFSYWYFGLWRLIFFMAPIVFSVFGVVVLSTSAIQMLEVWLPMFIFTNLTFYHFSKKVRSVSWTHIYDTILFPQITVGILKETFGFKMSKFKVTPKENVRRDNFTNRFELVRVQIVLAVLSFAGIVRIIYLYVTNNFEAQYIINLFWLTYNFYLLVMAIFFASERPKFRNNERMFVSEEAYVVNNEQKLYGKTIDISETGISIKLEKPICIDPNENYSIGVKTARNSAEFSGKIVRVDNFKDGHKYAFNITEIDEKNFSELILILYDRVPPSPEKQKRDYMTVNVLRNIINRKKRIVPLNRKLPRVKIDKKVKILVSKNEEGIHVVDFNYMYIAVKCVQEYDSFILPLSEKFNINLNCTYDKTLSERNRKKVSIYKVTNYDEFKDHDLLELLKAVPVYNEELNIHEKVAAVK | failed
14 | MKRIQVSPHIYKLESWFLLKMSAWIVKEDEGVYIVDTGMPYMGKRILKEAEKLGKVKGVLLTHGHSDHVGGLKKILDIQDLPVYVHTLDIKHMEGKEPFPGRKKREYLVEPGVAKPLPVDEDGEFRCFGNLVPYHTPGHSPGHVCYYHKKDRVLIGGDLFTSKRGKLQQPIKMFTADMNEAVRSGEIVKKLQPSKVSICHGNDIDNPHTQIDEYLTHYKYERNDQQKIKNEDRTIS | failed
15 | MKRKAFLALGFLALGLGVSQVGPFRARLEAAIQTGGEAFAQVMLSQDKAQALCTQYRDKLPPELVPAFLAEQRALIKYPASGKLMGDWKNGEKVFTDPKRGNCYACHQGDPREVAYGTMGPSLTGYGQRGLSEAVVRYTYEKIYNAWAFVPCSLMYRGGVHGYFTPEETADLVAYLLSPESPINRR | failed
